Measurements as given in patent US20100260668A1 (published 2010).

T1: PlGF (UniProt P49763-2 21-149, limits assumed)
T1 construct: bought antigen coated on the ELISA plate; also called Placental GF
T1 sequence (looked up): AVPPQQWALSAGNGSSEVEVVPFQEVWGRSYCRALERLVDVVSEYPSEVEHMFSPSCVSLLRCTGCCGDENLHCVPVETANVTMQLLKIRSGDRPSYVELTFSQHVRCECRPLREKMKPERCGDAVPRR

B1: DVD512 (bispecific antibody, human IgG1, lambda, L234A L235A)
heavy: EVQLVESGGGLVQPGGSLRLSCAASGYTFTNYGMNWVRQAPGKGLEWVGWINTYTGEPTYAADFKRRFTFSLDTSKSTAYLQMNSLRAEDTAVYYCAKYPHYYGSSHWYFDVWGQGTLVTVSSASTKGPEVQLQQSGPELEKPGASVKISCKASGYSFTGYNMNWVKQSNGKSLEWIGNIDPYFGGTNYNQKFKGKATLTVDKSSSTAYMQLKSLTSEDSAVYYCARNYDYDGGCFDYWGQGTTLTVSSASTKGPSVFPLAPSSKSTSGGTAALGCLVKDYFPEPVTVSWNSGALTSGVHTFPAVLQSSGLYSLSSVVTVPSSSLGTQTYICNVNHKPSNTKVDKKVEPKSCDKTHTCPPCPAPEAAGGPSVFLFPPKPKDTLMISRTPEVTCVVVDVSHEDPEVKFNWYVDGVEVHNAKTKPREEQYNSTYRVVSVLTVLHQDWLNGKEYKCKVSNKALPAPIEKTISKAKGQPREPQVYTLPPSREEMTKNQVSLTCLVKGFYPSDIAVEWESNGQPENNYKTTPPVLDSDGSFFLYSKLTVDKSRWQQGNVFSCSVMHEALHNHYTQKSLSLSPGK
light: DIQMTQSPSSLSASVGDRVTITCSASQDISNYLNWYQQKPGKAPKVLIYFTSSLHSGVPSRFSGSGSGTDFTLTISSLQPEDFATYYCQQYSTVPWTFGQGTKVEIKRTVAAPQAVVTQESALTTSPGETVTLTCRSSTGAVTTSNYANWVQEKPDHLFTGLIGGTNNRAPGVPARFSGSLIGDKAALTITGAQTEDEAIYFCALWYSNHWVFGGGTKLTVLGQPKAAPSVTLFPPSSEELQANKATLVCLISDFYPGAVTVAWKADSSPVKAGVETTTPSKQSNNKYAASSYLSLTPEQWKSHRSYSCQVTHEGSTVEKTVAPTECS
notes: DVD-Ig; HC short, LC short linker; also called DVD512H; DVD512L
B2: DVD543 (bispecific antibody, human IgG1, kappa)
heavy: not shown
light: AIQMTQSSSSFSVSLGDRVTITCKASEDIYNRFAWYQQKPGNAPRLLISGAASLEAGVPSRFSGSGSGQDYTLSITSLQTEDVATYYCQQYWSTPWTFGGGTKLEIKRTVAAPDIQMTQSPSSLSASVGDRVTITCRASQDVSTAVAWYQQKPGKAPKLLIYSASFLYSGVPSRFSGSGSGTDFTLTISSLQPEDFATYYCQQSYTTPPTFGQGTKVEIKRTVAAPSVFIFPPSDEQLKSGTASVVCLLNNFYPREAKVQWKVDNALQSGNSQESVTEQDSKDSTYSLSSTLTLSKADYEKHKVYACEVTHQGLSSPVTKSFNRGEC
notes: HC linker short, LC linker short; also called DVD-Ig DVD543
B3: DVD559 (bispecific antibody, human IgG1, kappa)
heavy: not shown
light: AIQMTQSSSSFSVSLGDRVTITCKASEDIYNRFAWYQQKPGNAPRLLISGAASLEAGVPSRFSGSGSGQDYTLSITSLQTEDVATYYCQQYWSTPWTFGGGTKLEIKRTVAAPDIQMTQSPSSLSASVGDRVTITCRASQDVSTAVAWYQQKPGKAPKLLIYSASFLYSGVPSRFSGSGSGTDFTLTISSLQPEDFATYYCQQSYTTPPTFGQGTKVEIKRTVAAPSVFIFPPSDEQLKSGTASVVCLLNNFYPREAKVQWKVDNALQSGNSQESVTEQDSKDSTYSLSSTLTLSKADYEKHKVYACEVTHQGLSSPVTKSFNRGEC
notes: HC linker long, LC linker short; also called DVD-Ig DVD559
B4: DVD446 (bispecific antibody, human IgG1, kappa)
heavy: not shown
light: DIQMTQSPSSLSASVGDRVTITCRASQVIRRSLAWYQQKPGKAPKLLIYAASNLASGVPSRFSGSGSGTDFTLTISSLQPEDFATYYCQQSNTSPLTFGQGTKVEIKRTVAAPDIVMTQSPDSLAVSLGERATISCRASESVDNYGISFMKWFQQKPGQPPKLLIYAASNQGSGVPDRFSGSGSGTDFTLTISSLQAEDVAVYYCQQSKEVPWTFGGGTKVEIKRTVAAPSVFIFPPSDEQLKSGTASVVCLLNNFYPREAKVQWKVDNALQSGNSQESVTEQDSKDSTYSLSSTLTLSKADYEKHKVYACEVTHQGLSSPVTKSFNRGEC
notes: DVD-Ig; outer AB071 (VEGF), inner AB069 (DLL4); HC short, LC short linker; also called DVD446H; DVD446L
B5: DVD470 (bispecific antibody, human IgG1, kappa)
heavy: not shown
light: DIQMTQSPSSLSASVGDRVTITCSASQDISNYLNWYQQKPGKAPKVLIYFTSSLHSGVPSRFSGSGSGTDFTLTISSLQPEDFATYYCQQYSTVPWTFGQGTKVEIKRTVAAPSVFIFPPDIQMTQSPSSLSASVGDRVTITCRASQDVSTAVAWYQQKPGKAPKLLIYSASFLYSGVPSRFSGSGSGTDFTLTISSLQPEDFATTYYCQQSYTGTVTFGQGTKVEIKRTVAAPSVFIFPPSDEQLKSGTASVVCLLNNFYPREAKVQWKVDNALQSGNSQESVTEQDSKDSTYSLSSTLTLSKADYEKHKVYACEVTHQGLSSPVTKSFNRGEC
notes: DVD-Ig; also called VEGF and DLL4 DVD-Ig, HC linker long, LC linker long
B6: DVD468 (bispecific antibody, human IgG1, kappa)
heavy: not shown
light: DIQMTQSPSSLSASVGDRVTITCRASQVIRRSLAWYQQKPGKAPKLLIYAASNLASGVPSRFSGSGSGTDFTLTISSLQPEDFATYYCQQSNTSPLTFGQGTKVEIKRTVAAPDIQMTQSPSSLSASVGDRVTITCRASQDVSTAVAWYQQKPGKAPKLLIYSASFLYSGVPSRFSGSGSGTDFTLTISSLQPEDFATTYYCQQSYTGTVTFGQGTKVEIKRTVAAPSVFIFPPSDEQLKSGTASVVCLLNNFYPREAKVQWKVDNALQSGNSQESVTEQDSKDSTYSLSSTLTLSKADYEKHKVYACEVTHQGLSSPVTKSFNRGEC
notes: DVD-Ig; outer AB071 (VEGF), inner AB015 (DLL4); HC short, LC short linker; also called DVD468H; DVD468L
B7: DVD583 (bispecific antibody, human IgG1, kappa)
heavy: not shown
light: DIVLTQSPDSLAVSLGERVTMNCKSSQSLLNSGMRKSFLAWYQQKPGQSPKLLIYWASTRESGVPDRFTGSGSGTDFTLTISSVQAEDVAVYYCKQSYHLFTFGSGTKLEIKRTVAAPSVFIFPPDIQMTQSPSSLSASVGDRVTITCRASQVIRRSLAWYQQKPGKAPKLLIYAASNLASGVPSRFSGSGSGTDFTLTISSLQPEDFATYYCQQSNTSPLTFGQGTKVEIKRTVAAPSVFIFPPSDEQLKSGTASVVCLLNNFYPREAKVQWKVDNALQSGNSQESVTEQDSKDSTYSLSSTLTLSKADYEKHKVYACEVTHQGLSSPVTKSFNRGEC
notes: outer AB047 (PlGF), inner AB071 (VEGF); HC linker long, LC linker long; also called DVD-Ig DVD583
B8: AB063 (antibody, human IgG1, kappa, V domains shown)
VH: EVQLVESGGGLVQPGGSLRLSCAASGFTFSIYSMNWVRQAPGKGLEWVSYISSSSSTIYYADSVKGRFTISRDNAKNSLYLQMNSLRDEDTAVYYCARDRGDFDAFDIWGQGTMVTVSS
VL: DIQMTQSPSSLSASVGDRVTITCQASQDITNYLNWYQQKPGKAPKLLIYDASNLETGVPSRFSGSGSGTDFTFTISSLQPEDIATYNCQQCENFPITFGQGTRLEIKR
notes: also called AB063VH; AB063VL
B9: DVD043 (bispecific antibody, human IgG1, kappa)
heavy: not shown
light: DIQMTQSPSSLSASVGDRVTITCSASQDISNYLNWYQQKPGKAPKVLIYFTSSLHSGVPSRFSGSGSGTDFTLTISSLQPEDFATYYCQQYSTVPWTFGQGTKVEIKRTVAAPDIQMTQSPSSLSASVGDRVTITCRASQDVSTAVAWYQQKPGKAPKLLIYSASFLYSGVPSRFSGSGSGTDFTLTISSLQPEDFATTYYCQQSYTGTVTFGQGTKVEIKRTVAAPSVFIFPPSDEQLKSGTASVVCLLNNFYPREAKVQWKVDNALQSGNSQESVTEQDSKDSTYSLSSTLTLSKADYEKHKVYACEVTHQGLSSPVTKSFNRGEC
notes: DVD-Ig; HC short, LC short linker; also called DVD043H; DVD043L
B10: DVD561 (bispecific antibody, human IgG1, kappa)
heavy: not shown
light: AIQMTQSSSSFSVSLGDRVTITCKASEDIYNRFAWYQQKPGNAPRLLISGAASLEAGVPSRFSGSGSGQDYTLSITSLQTEDVATYYCQQYWSTPWTFGGGTKLEIKRTVAAPDIQMTQSPSSLSASVGDRVTITCRASQVIRRSLAWYQQKPGKAPKLLIYAASNLASGVPSRFSGSGSGTDFTLTISSLQPEDFATYYCQQSNTSPLTFGQGTKVEIKRTVAAPSVFIFPPSDEQLKSGTASVVCLLNNFYPREAKVQWKVDNALQSGNSQESVTEQDSKDSTYSLSSTLTLSKADYEKHKVYACEVTHQGLSSPVTKSFNRGEC
notes: outer AB074 (PlGF), inner AB071 (VEGF); HC linker long, LC linker short; also called DVD-Ig DVD561
B11: DVD492 (bispecific antibody, human IgG1, kappa)
heavy: not shown
light: DIQMTQSPSSLSASVGDRVTITCRASQVIRRSLAWYQQKPGKAPKLLIYAASNLASGVPSRFSGSGSGTDFTLTISSLQPEDFATYYCQQSNTSPLTFGQGTKVEIKRTVAAPDIQMTQSSSYLSVSLGGRVTITCKASDHINNWLAWYQQKPGNAPRLLISGATSLETGVPSRFSGSGSGKDYTLSITSLQTEDVATYYCQQYWSIPLTFGAGTKLELKRTVAAPSVFIFPPSDEQLKSGTASVVCLLNNFYPREAKVQWKVDNALQSGNSQESVTEQDSKDSTYSLSSTLTLSKADYEKHKVYACEVTHQGLSSPVTKSFNRGEC
notes: DVD-Ig; outer AB071 (VEGF), inner AB072 (DLL4); HC short, LC short linker; also called DVD492H; DVD492L
B12: DVD516 (bispecific antibody, human IgG1, lambda)
heavy: not shown
light: DIQMTQSPSSLSASVGDRVTITCRASQVIRRSLAWYQQKPGKAPKLLIYAASNLASGVPSRFSGSGSGTDFTLTISSLQPEDFATYYCQQSNTSPLTFGQGTKVEIKRTVAAPQAVVTQESALTTSPGETVTLTCRSSTGAVTTSNYANWVQEKPDHLFTGLIGGTNNRAPGVPARFSGSLIGDKAALTITGAQTEDEAIYFCALWYSNHWVFGGGTKLTVLGQPKAAPSVTLFPPSSEELQANKATLVCLISDFYPGAVTVAWKADSSPVKAGVETTTPSKQSNNKYAASSYLSLTPEQWKSHRSYSCQVTHEGSTVEKTVAPTECS
notes: DVD-Ig; outer AB071 (VEGF), inner AB073 (DLL4); HC short, LC short linker; also called DVD516H; DVD516L
B13: DVD581 (bispecific antibody, human IgG1, kappa)
heavy: not shown
light: DIVLTQSPDSLAVSLGERVTMNCKSSQSLLNSGMRKSFLAWYQQKPGQSPKLLIYWASTRESGVPDRFTGSGSGTDFTLTISSVQAEDVAVYYCKQSYHLFTFGSGTKLEIKRTVAAPSVFIFPPDIQMTQSPSSLSASVGDRVTITCRASQDVSTAVAWYQQKPGKAPKLLIYSASFLYSGVPSRFSGSGSGTDFTLTISSLQPEDFATYYCQQSYTTPPTFGQGTKVEIKRTVAAPSVFIFPPSDEQLKSGTASVVCLLNNFYPREAKVQWKVDNALQSGNSQESVTEQDSKDSTYSLSSTLTLSKADYEKHKVYACEVTHQGLSSPVTKSFNRGEC
notes: HC linker long, LC linker long; also called DVD-Ig DVD581
B14: DVD551 (bispecific antibody, human IgG1, kappa)
heavy: not shown
light: AIQMTQSSSSFSVSLGDRVTITCKASEDIYNRFAWYQQKPGNAPRLLISGAASLEAGVPSRFSGSGSGQDYTLSITSLQTEDVATYYCQQYWSTPWTFGGGTKLEIKRTVAAPSVFIFPPDIQMTQSPSSLSASVGDRVTITCRASQDVSTAVAWYQQKPGKAPKLLIYSASFLYSGVPSRFSGSGSGTDFTLTISSLQPEDFATYYCQQSYTTPPTFGQGTKVEIKRTVAAPSVFIFPPSDEQLKSGTASVVCLLNNFYPREAKVQWKVDNALQSGNSQESVTEQDSKDSTYSLSSTLTLSKADYEKHKVYACEVTHQGLSSPVTKSFNRGEC
notes: HC linker long, LC linker long; also called DVD-Ig DVD551

How the values were obtained:
[1] = target: T2, DLL4 ECD/His tag (R&D 1506-D4-050) (UniProt Q9NR61 27-529); test: direct bind ELISA, DLL4 on plate; DLL4 VD C-term.; HC Short, LC Short
T2 construct: extracellular domain; Bought antigen coated on the ELISA plate; not shown: His tag

PlGF = target: T1, PlGF; test: direct bind ELISA, N-terminal VD
VEGF = target: T3, VEGF (UniProt P15692 27-191, limits assumed); test: direct bind ELISA, C-terminal VD
T3 construct: bought antigen coated on the ELISA plate
Description: Enzyme Linked Immunosorbent Assays to screen for antibodies that bind a desired target antigen were performed as follows. […] Plates were washed four times with PBS containing 0.02% Tween 20. Plates were blocked by the addition of 300 μL/well blocking solution (non-fat dry milk powder, various retail suppliers, diluted to 2% in PBS) for ½ hour at room temperature. Plates were washed four times after blocking with PBS containing 0.02% Tween 20.
Plates were washed 4 times with PBS containing 0.02% Tween 20.

DLL4 = target: T4, DLL4 (human, UniProt Q9NR61 27-685); test: flow cytometry on 293G-human DLL4 cells; DLL4 VD C-terminal
T4 construct: whole, on cells; also called human DLL4

[2] = target: T5, ErbB3 (ErbB3/FC Chimera-His tag) (UniProt P21860 20-643, limits assumed); test: SPR (Biacore); parent antibody
T5 construct: extracellular domain
Description: The BIACORE assay (Biacore, Inc, Piscataway, N.J.) determines the affinity of antibodies or DVD-Ig with kinetic measurements of on-rate and off-rate constants. Binding of antibodies or DVD-Ig to a target antigen (for example, a purified recombinant target antigen) is determined by surface plasmon resonance-based measurements with a Biacore® 1000 or 3000 instrument (Biacore® AB, Uppsala, Sweden) using running HBS-EP (10 mM HEPES [pH 7.4], 150 mM NaCl, 3 mM EDTA, and 0.005% surfactant P20) at 25° C. […] For example, approximately 5000 RU of goat anti-mouse IgG, (Fcγ), fragment specific polyclonal antibody (Pierce Biotechnology Inc, Rockford, Ill.) diluted in 10 mM sodium acetate (pH 4.5) is directly immobilized across a CM5 research grade biosensor chip using a standard amine coupling kit according to manufacturer's instructions and procedures at 25 μg/ml. Unreacted moieties on the biosensor surface are blocked with ethanolamine. Modified carboxymethyl dextran surface in flowcell 2 and 4 is used as a reaction surface. Unmodified carboxymethyl dextran without goat anti-mouse IgG in flow cell 1 and 3 is used as the reference surface. For kinetic analysis, rate equations derived from the 1:1 Langmuir binding model are fitted simultaneously to association and dissociation phases of all eight injections (using global fit analysis) with the use of Biaevaluation 4.0.1 software. Purified antibodies or DVD-Ig are diluted in HEPES-buffered saline for capture across goat anti-mouse IgG specific reaction surfaces. Antibodies or DVD-Ig to be captured as a ligand (25 μg/ml) are injected over reaction matrices at a flow rate of 5 μl/min. The association and dissociation rate constants, kₒₙ (M⁻¹s⁻¹) and koff (s⁻¹) are determined under a continuous flow rate of 25 μl/min. Rate constants are derived by making kinetic binding measurements at different antigen concentrations ranging from 10-200 nM. The equilibrium dissociation constant (M) of the reaction between antibodies or DVD-Igs and the target antigen is then calculated from the kinetic rate constants by the following formula: KD=koff/kₒₙ. Binding is recorded as a function of time and kinetic rate constants are calculated.

T3 sequence (P15692 other isoform, or with tags, fused parts or gaps limits assumed): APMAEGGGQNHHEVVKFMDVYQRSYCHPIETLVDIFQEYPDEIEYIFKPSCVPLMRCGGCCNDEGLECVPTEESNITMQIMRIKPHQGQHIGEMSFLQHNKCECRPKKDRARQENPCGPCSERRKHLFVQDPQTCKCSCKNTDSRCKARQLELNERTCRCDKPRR

Binder	EC50 [1]	EC50 (PlGF)	EC50 (VEGF)	further results
B1	1.71 nM			
B2		0.14 nM	1120 nM	
B3		0.13 nM	39.2 nM	
B4	13.9 nM			
B5				EC50 (DLL4): 1.72 nM
B6	2.28 nM			
B7		0.32 nM	560 nM	
B8				Kd [2]: 0.15 nM; koff [2]: 0.000175 s⁻¹; kon [2]: 1.17e+06 M⁻¹ s⁻¹
B9	0.67 nM			
B10		1.04 nM	241 nM	
B11	1.77 nM			
B12	4.33 nM			
B13		0.39 nM	35.9 nM	
B14		97 nM	1590 nM	
